Laboratory results reported in article PMC2818180.

Molecular target: Affinity peptide KRTGQYKL immobilised in PEG hydrogel
Experiment: absorption of bFGF into peptide-functionalized hydrogels

- bFGF absorbed in gel at 4.4 µM monovalent peptide: 27.3 ng/mg-gel
Substance: Recombinant human bFGF (from UniProt P09038 143-288) (ligand)
